In the nanobody polyreactivity screen of Harvey et al. (2022):

Experiment: yeast display, Sf9 membrane polyspecificity reagent, FACS + sequencing; frameworks hold sequencing errors
Method in brief: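 Galactose-induced (36–48 hours) yeast carrying a synthetic nanobody display library were exposed to 10% biotinylated, detergent-solubilized Sf9 membrane reagent at 4 °C for 1 hour. FACS followed streptavidin microbead enrichment, using low and high (top ~1%) gates for expression (anti-HA) and reagent binding (streptavidin). Colony PCR, MiSeq 2 × 250 sequencing and CDR-length filtering followed. Labels for polyreactivity reflect the gate of origin.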

Sequence | polyreactivity (PSR sort gate)
QVQLVESGGGLVQAGGSLRLSCAASGNTFTWYTMGWYRQAPGKERELVAGITWSGGSTFYADSVKGRFTISRDNAKNTVYLQMNSLKPEDTAVYYCAVSTEVNRYHAKYDYWGQGTQVTVSS | low polyreactivity
QVQLVESGGGLVQAGGSLRLSCAASGNTFTWYTMGWYRQAPGKERELVAVITSDGSTYYADSVKGRFTISRDNAKNTVYLQMNRLKPEDTAVYYCNALSADWYPEEDYWGQGTQVTVSS | low polyreactivity
QVQLVESGGGLVQAGGSLRLSCAASGNTFTYYALGWYRQAPGTEREVVASISSGGSTNYADSVKGRFTISRDNAKNTVYLQMNRLKPEDTAVYYCARGWSFSTRRFQHTRYYYWGQGTQVTVSS | high polyreactivity
QVQLVESGGGLVQAGGSLRLSCAASGNTFVAYTMGWYRPAPGKERELVAAISWRGGTTYYADSVKGRFTISRDNAKNTVYLQMNSLKPEDTAVYYCAARTSYISHGYVTHGLYYWGQGTQVTVSS | high polyreactivity
QVQLVESGGGLVQAGGSLRLSCAASGNTFVDYAMGWYRQAPGKERELVAAISDGGSTNYADSVKGRFTISRDNAKNTVYLQMNSLKPEDTAVYYCAKDELYIPGVWPYYEYDYWGQGTQLTVSS | low polyreactivity
QVQLVESGGGLVQAGGSLRLSCAASGNTFVPYAMGWYRQAPGKERELVAAITFSAGRTYYADSVKGRFTISRDNAKNTVYLQMNSLKPEDTAVYYCNVYWYNNYRGYYYWGQGTQVTVSS | high polyreactivity
QVQLVESGGGLVQAGGSLRLSCAASGNTFVQNTMGWYRQAPGKERELVAAISSRGGSTYYADSVKGRFTISRDNAKNTVYLQMNSLKPEDTAVYYCAARSKVRRSYDYRGQGTQVTVSS | high polyreactivity
QVQLVESGGGLVQAGGSLRLSCAASGNTFVRNAMGWYRQAPGKERELVAAMSSRGTSTYYADSVKGRFTISRDNAKNTVYLQMNSLKPEDTAVYYCAAYQYPADFKLYYYWGQGTQVTVSS | high polyreactivity
QVQLVESGGGLVQAGGSLRLSCAASGNTFVYYAMGWYRQAPGKERELVAAISSSGGRTYYADSVKGRFTISRDNAKNTVYLQMNSLKPEDTAVYYCAARGPYTTKAYDYWGQGTQVTVSS | high polyreactivity
QVQLVESGGGLVQAGGSLRLSCAASGNTFWKYAMGWYRQAPGKERELVAAITRGGARTYYADSVKGRFTISRDNAKYSVYLQINSLNPEDTAVYYCAAQYWTEYGSWGQGTEVTVSS | low polyreactivity
QVQLVESGGGLVQAGGSLRLSCAASGNTFWSYTMGWYRQAPGKERELVAAITRSGGSTYYADSVKGRFTISRDHAKNTVYLQMNSLKPEDTAVYYCAADYYSASRFGYWGQGTQVTVSS | high polyreactivity
QVQLVESGGGLVQAGGSLRLSCAASGNTFYGYAMGWYRQAPGKERELVASITLSGDSMYYADSVKGRFTISRDNAKNTVYLQMNSLIPDDTAVYYCNADWYFQYPYDYWGQGTQVSVSS | low polyreactivity
QVQLVESGGGLVQAGGSLRLSCAASGNTFYGYAMGWYRQAPGKERELVASITLSGDSTYYADSVKGRFTISRDNAKNTVYLQMNSLKPEDTAVYDCAGVYTYPLGYYHYTYDYWGQGTQVTVSS | low polyreactivity
QVQLVESGGGLVQAGGSLRLSCAASGNTFYGYAMGWYSQAPGQERELVASITLSGDSTYYADSVKGRFTISRDNAKNTVYLQMNTLKPEDTAVYYCAGVYTYPLGYYHYTYDYWGQGTQVTVSS | low polyreactivity
QVQLVESGGGLVQAGGSLRLSCAASGNTFYGYTMGWYIQAPGKDRELVAAISGRGGSTTYADSVKGRFTISRDNAKNTVYLQMNSLNPEDTAVYYCAATYVYIRTRFYYWGQGTQVTVSS | high polyreactivity
QVQLVESGGGLVQAGGSLRLSCAASGNTFYKYAMGWYRQAPGKERELVADISWSGGSTYYADSVKGRFTISRDNAKNTVYLQMNSLKREDTAVYYCNADTPVWDGHAYPVDYWGQGTQVTVSS | low polyreactivity
QVQLVESGGGLVQAGGSLRLSCAASGNTFYPHAMGWYRQAPGTERELVAAISSTGGRTYYADSVKGRFTISRDNAKNTVYLQMNSLKPEDTAVYFCNTYACVAGDYWGQGTQVTVSS | high polyreactivity
QVQLVESGGGLVQAGGSLRLSCAASGNTFYPYAMGWYRQAPGKERELVAAISFSSGSTYYADSVKGRFTISRDNAKNTVYLQMNSLKPEETAVYYCAAEANGNFAWWEYYYWGQGTQVTVSS | high polyreactivity
QVQLVESGGGLVQAGGSLRLSCAASGNTFYPYAMGWYRQAPGKERELVAAITSSGGSTYYADSVKGRFTISRDNAKNTVYLQMNSLKPEDTAVYYCAADPDWYSPFKYCYWGQGTQVTVSS | low polyreactivity
QVQLVESGGGLVQAGGSLRLSCAASGNTFYRNAMGWYRQAPGKERELVAGISNGGSTNYADSVKGRFTISRDNAKNTVYLQMNSLKPEDTAVYYCAKDEPKVSRAFDYWGQGTQVTVSS | low polyreactivity
QVQLVESGGGLVQAGGSLRLSCAASGNTFYRYAMGWYRQAPGKERELVAAITWSGSRTYYADSVKGRFTISRDNAKNTVYLQMNSLKPEDTAVYYCAAPFWYVGPAMDYWGQGTQVTVSS | low polyreactivity
QVQLVESGGGLVQAGGSLRLSCAASGNTFYSYAMGWYRQAPGKERELVAAITWGGRTKYADSVKGRFTISRDNAKNTVYLQMNSLKPEDTAVYYCAARLYHGKTKYDYWGQGTQVTVSS | high polyreactivity

Sequence | polyreactivity (PSR sort gate)
QVQLVESGGGLVQAGGSLRLSCAASGNTFYTNVMGWYRQAPGKERELVAAITQSGARTYYADSVKGRFTISRDNAKNTVYLQMNSLKPEDTAVYYCASEHYFYRDYPYEFWGQGTQVTVSS | high polyreactivity
QVQLVESGGGLVQAGGSLRLSCAASGNTIGVNAMGWYRQAPGKERELVAVITSGGGSTYYADSVKGRFTISRDNAKNTVYLQMNSLKPEDTAVYYCARRSYRLYTLGNGYWGQGTQVTVSS | low polyreactivity
QVQLVESGGGLVQAGGSLRLSCAASGNTIIRYAIAWYRQAPGKERELVAAISYSGGRTYYADSVKGRFTISRDNANNTVYLQMNSLKPEDTAVYYCNAASRYGGDYWGQGTQVTVSS | high polyreactivity
QVQLVESGGGLVQAGGSLRLSCAASGNTIIRYPMGWYRPAPGKERELVAAISYSGGRTYYADSVKGRFTISRDSAKNTVYLQMNRLKPEDSAVLYCNAASRYGGDYWGQGSQVTVSS | high polyreactivity
QVQLVESGGGLVQAGGSLRLSCAASGNTIKGYAMGLYRQAPGKERELVAAISWSGSSTYYADSVKGRFTISRDNAKYSVYLHKNSVKPEDTAVYYCNRKYLGRYASVYGYGYWGQGTQVTVSS | high polyreactivity
QVQLVESGGGLVQAGGSLRLSCAASGNTIRSYAMGWYRPAPGKERELVAAISGRGGSTYYADSVKGRFTISRDNAKNTVYLEMNSLKPEDTAVNYCAAESRRVNYANDYWGQGTEVTVSS | high polyreactivity
QVQLVESGGGLVQAGGSLRLSCAASGNTLAYYVMGWYRQAPGKERELVAAITSGGTTNYADSVKGRFTISRDNAKNTVYLQMNSLNPEDTAVYYCAGCPSKRPPWLRQGGYDYWGQGTQVTVSS | low polyreactivity
QVQLVESGGGLVQAGGSLRLSCAASGNTLDAYAMGWYRQAPGKERELVAAITSGGSTYYADSVKGRFTISRDNAKNTVYLQMNILKPEDTAVYYCNADGHPSDPGYDYWGQGTQVTVSS | low polyreactivity
QVQLVESGGGLVQAGGSLRLSCAASGNTSVPYAMGWYRQAPGKERELVARITWSTGRTYYADSVKGRFTISRDNAKNTVYLQMNSLKPEDTAVYYCATEALLPCSGGDYWGQGTQVTVSS | low polyreactivity
QVQLVESGGGLVQAGGSLRLSCAASGNTYGRYAMGWYRQAPGKERELVAAISSSGTSTYYADSVKGRFTISRDNAKNTVYLQMNSLKPVDTAVYNCGAVYWTFWGTIASRYDYWGQGTQVTVAS | high polyreactivity
QVQLVESGGGLVQAGGSLRLSCAASGNTYLNAMGWYRQAPGKERELVAAISKGGADTYYADSVKGRFTISRDNAKNTVYLQMNSLKPEDTAVYYCAADGYADGWWVEYPWTYDYWGQGTQVTVSS | low polyreactivity
QVQLVESGGGLVQAGGSLRLSCAASGPIFTSNAMGWYRQAPGKERELVAAISRRGTRTYYADSVKGRFTISRDNAKNTVYLQMNSLKPEDTAVYYCAATTGEQEYYWGQGTQVTVSS | high polyreactivity
QVQLVESGGGLVQAGGSLRLSCAASGPMFTSNAMGWYRQAPGKERELVAAISRRGTRTYYADSVKGRFTISRDIAKHSVYLQMNSLKPEDTAVYYCAATTGEQEDYWGQGTQVTVSS | high polyreactivity
QVQLVESGGGLVQAGGSLRLSCAASGPTFFYYAMGWYRQAPGKERELVAAIRRSGGRTRYADSVKGRFTISRDNAKNTVYLQMNSLKPEDTAVYYCAADDGTHRRGYDYWGQGTQVTVSS | low polyreactivity
QVQLVESGGGLVQAGGSLRLSCAASGPTFPFNAMGWYRQAPGKERELVAAISWRDGRTYYADSVKGRFTISRDNAKNTVYLQMNSLKPEDTAVYYCNVVKRRSDWGMDYWGQGTQVTVSS | high polyreactivity
QVQLVESGGGLVQAGGSLRLSCAASGPTFWRNAMGWYRQAPGKEREFVASISRSGGSTYYADSVKGRFTISRDNAKNTVYLQMNSLKPEDTAVYYCAALGVRGYRGPGGQDYNSWGQGTQVTVSS | high polyreactivity
QVQLVESGGGLVQAGGSLRLSCAASGPTYKYNAMGWYRQAPGKEREMVAAISSTGSTNYADSVKGRFTISRDNAKNTVYLQMNSLKPEDTAVYYCAASFYFVQWGWYYYWGQGTQVTVSS | low polyreactivity
QVQLVESGGGLVQAGGSLRLSCAASGPTYWPYAMGWYRQAPGKERELVAAITYSGGGTYYADSVKGRFTISRDNAKNTVYLQMNSLKPEDTAVYYCAKYNYPGRPFDYWGQGTQVTVSS | low polyreactivity
QVQLVESGGGLVQAGGSLRLSCAASGQTFGGYAMGWYRQAPGKERELVAAITKRGGNTDYADSVKGRFTISRDKAKNTVYLQMTSLKPEDTAVYYCAASRAVGFGYWGQGTQVTVSS | high polyreactivity
QVQLVESGGGLVQAGGSLRLSCAASGQTFRRYDMGWYRQAPGKEREFVAAITWSTGSTYYADSVKGRFTISRDYAKNTVYLQMNSLKPEDTAGYYCAARSGYFYRYYKYDYWGQGTQVTVSS | high polyreactivity
QVQLVESGGGLVQAGGSLRLSCAASGRFFSNNAMGWYRPAPGKERELVAAIDSSGDSTNYADSVKGRFTISRDIAKNTVYLQMNSLKPEDTAVYYCNALQRGRRVWQYLYGYWGQGTQVNVSS | high polyreactivity
